Here are results for four molecules from US20180346912, “METHOD FOR STABILIZING DNA APTAMERS” (TAGCYX BIOTECHNOLOGIES, published 2018).

For the series, the target named is vWF A1 domain (UniProt P04275 P04275:1277-1453). As to the kind of experiment: competition; EMSA competition vs 32P-ARC1172(wt) (=1.00), PBS, 0.1 mg/mL BSA, 37 C. The note with it: tags: U-Protein Express BV. On the procedure:
In order to examine each prepared nucleic acid for its binding to vWF A1 domain, competition with ARC1172 reported as an aptamer binding to vWF A1 domain was tested using each variant nucleic acid. In 20 μL of a reaction solution (1× PBS and 0.1 mg/mL BSA). ARC1172 labeled with [γ-³²P]ATP (final concentration: 100 nM), each unlabeled nucleic acid (ARC1172(wt), ARC1172(wt)-iT, ARC1172-F, ARC 1172-F-iT, and ARC1172-G) (final concentration: 100 nM), and vWF A1 domain (100 nM, U-Protein Express BV) were mixed and incubated at 37° C. for 30 minutes. Then, 25% glycerol containing bromophenol blue was added thereto at a final glycerol concentration of 5%. Labeled ARC1172(wt) bound to vWF A1 domain was separated from labeled ARC1172 in a free form by 10% non-denaturing polyacrylamide gel electrophoresis. The gel was dried and visualized using Bio Image Analyzer FLA-7000, and the radioactivity was measured. The gel shift rate, the inhibition rate, and the relative binding rate were calculated in accordance with Example 2.

vWF A1 domain, sequence (P04275 1277-1453, one chain of several): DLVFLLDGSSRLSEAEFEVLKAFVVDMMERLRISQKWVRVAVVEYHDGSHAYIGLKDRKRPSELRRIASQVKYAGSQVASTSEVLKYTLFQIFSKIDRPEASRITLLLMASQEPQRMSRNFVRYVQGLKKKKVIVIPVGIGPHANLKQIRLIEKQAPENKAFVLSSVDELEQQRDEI

In turn, GGCGTGCAGTGCCGAAGGCCGTGCGGTGCCTCCGTCACGCCCGCGAAGCG (ssDNA) [ARC1172-G] came in with a binding signal (internal and 3' mini-hairpins) of 1.61.

GGCGTGCAGTGCCGAAGGCCGTGCGGTGCCTCCGTCACGCC (ssDNA, 3' idT) [ARC1172-F-iT]: the binding signal (internal mini-hairpin) turned out to be 1.43.

In turn, GGCGTGCAGTGCCTTCGGCCGTGCGGTGCCTCCGTCACGCC (ssDNA, 3' idT) [ARC1172(wt)-iT] displayed a binding signal of 1.12.

Take GGCGTGCAGTGCCGAAGGCCGTGCGGTGCCTCCGTCACGCC (ssDNA) [ARC1172-F]: the binding signal (internal mini-hairpin) amounted to 1.37.
